# Source: PMC3637639
# Columns and labels:
# [1] = target: α7-Venus nAChR subunit (mouse) (UniProt P49582); assay: FRET or BRET; sensitized acceptor emission FRET between CFP-RIC-3 (donor) and α7-Venus, β2YFP (with nonfluorescent α4) or α4YFP (with nonfluorescent β2) co-transfected in living HEK293T cells at cDNA ratios of CFP-RIC-3 to subunit of 0.2:1, 0.5:1, 1:1 or 5:1
# [2] = target: β2YFP nAChR subunit (mouse) (UniProt Q9ERK7); assay: as above
# Sequence of UniProt Q9ERK7 (Q9ERK7 26-501): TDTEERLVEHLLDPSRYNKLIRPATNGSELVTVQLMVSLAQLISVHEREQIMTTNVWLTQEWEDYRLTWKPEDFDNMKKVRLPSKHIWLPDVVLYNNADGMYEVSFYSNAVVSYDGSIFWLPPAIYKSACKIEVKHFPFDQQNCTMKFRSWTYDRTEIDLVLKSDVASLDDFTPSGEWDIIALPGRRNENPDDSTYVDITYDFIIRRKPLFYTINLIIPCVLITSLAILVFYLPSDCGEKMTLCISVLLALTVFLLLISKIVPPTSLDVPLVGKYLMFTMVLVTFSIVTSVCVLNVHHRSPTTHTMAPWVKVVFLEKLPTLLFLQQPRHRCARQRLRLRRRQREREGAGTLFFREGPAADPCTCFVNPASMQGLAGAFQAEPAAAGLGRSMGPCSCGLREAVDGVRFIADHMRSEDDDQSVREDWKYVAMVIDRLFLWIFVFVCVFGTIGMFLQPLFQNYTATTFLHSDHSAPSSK
# Sequence of UniProt P49582 (P49582 23-502): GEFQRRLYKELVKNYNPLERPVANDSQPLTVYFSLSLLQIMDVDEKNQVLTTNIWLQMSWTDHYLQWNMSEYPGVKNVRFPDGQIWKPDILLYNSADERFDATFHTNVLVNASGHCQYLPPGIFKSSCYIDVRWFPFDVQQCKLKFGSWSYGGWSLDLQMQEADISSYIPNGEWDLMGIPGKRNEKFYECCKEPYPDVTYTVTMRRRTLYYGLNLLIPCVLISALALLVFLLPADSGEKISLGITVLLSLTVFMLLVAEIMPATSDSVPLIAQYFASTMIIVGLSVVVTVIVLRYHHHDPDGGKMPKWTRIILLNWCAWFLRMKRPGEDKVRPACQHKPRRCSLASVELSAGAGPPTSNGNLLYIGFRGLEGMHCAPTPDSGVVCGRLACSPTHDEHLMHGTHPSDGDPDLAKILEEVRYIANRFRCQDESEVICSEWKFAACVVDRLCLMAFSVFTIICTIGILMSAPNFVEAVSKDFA
substance,measurement,setting,value
CFP-RIC-3 (cyan fluorescent protein fused to the N terminus of RIC-3) (from UniProt Q7Z5B4 29-369) (natural protein),FRET efficiency (CFP-RIC-3 to α7-Venus 1:1),[1],26%
same,FRET efficiency (CFP-RIC-3 to β2YFP 0.2:1),[2],10.8%
same,FRET efficiency (CFP-RIC-3 to β2YFP 0.5:1),[2],10.7%
